This is an account of results in PMC10352329.

For series [1], the target named is human p300BRP (residues 1048–1282), wild type (human) (UniProt Q09472). Briefly: MST; as a2, but p300BRP incubated beforehand with 10 μM CBP30 (inhibitor of the bromodomain pocket) for at least 20 min.
Series [2] addresses human p300BRP (residues 1048–1282), 4A-substituted mutant (R1133A, K1134A, R1137A, K1140A) (human) (UniProt Q09472). Described as above.
Series [3] deals with human p300BRP (residues 1048–1282), wild type (human) (UniProt Q09472). Briefly: MST; p300BRP fluorescently labeled (His tag Labeling Kit), 2-fold serial dilutions of 180-bp nucleosome; 10 mM HEPES-NaOH pH 7.4, 150 mM NaCl, 0.05% Tween-20; 25 °C; Hill equation, half-saturation concentration (K1/2).
The target in series [4] is human p300BRP (residues 1048–1282), 4A-substituted mutant (R1133A, K1134A, R1137A, K1140A) (human) (UniProt Q09472). Described as above.
The test system of series [5] is p300 BRP 4A (Homo sapiens). The series can be described thus: MST. The conditions noted are these: human octamer H2A type 1-B/E, H2B type 1-J, MST and cryo-EM sample buffers not in the material, MST 10 µM CBP30 where stated.
In series [6] the test system is p300 BRP wild-type (Homo sapiens). The series can be described thus: MST. The following applies: human octamer H2A type 1-B/E, H2B type 1-J, MST and cryo-EM sample buffers not in the material, MST 10 µM CBP30 where stated.
The target in series [7] is Histone H4 K12ac/K16ac (Homo sapiens) (UniProt P62805). The following applies: cited from earlier work.
The target in series [8] is Histone H4 K8ac/K12ac (Homo sapiens) (UniProt P62805). The conditions noted are these: cited from earlier work.
Setting [9] is: no CBP30, H3.1, H4 with K12ac/K16ac.

human p300BRP (residues 1048–1282), wild type (human), sequence (Q09472 1048-1282): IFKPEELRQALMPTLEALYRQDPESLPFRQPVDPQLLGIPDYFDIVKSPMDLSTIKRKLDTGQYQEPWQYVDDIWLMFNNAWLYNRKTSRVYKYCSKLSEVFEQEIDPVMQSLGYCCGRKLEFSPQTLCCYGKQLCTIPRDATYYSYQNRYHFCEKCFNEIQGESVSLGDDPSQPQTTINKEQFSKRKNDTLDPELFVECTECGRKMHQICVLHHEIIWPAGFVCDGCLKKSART
human p300BRP (residues 1048–1282), 4A-substituted mutant (R1133A, K1134A, R1137A, K1140A) (human), sequence (Q09472 1048-1282 R1133A/K1134A/R1137A/K1140A): as the sequence (Q09472 1048-1282) above, with R86A, K87A, R90A, K93A counted along it

In the case of “180-bp nucleosome having H4K12ac/K16ac (H4acNuc) (from UniProt P04908 1-130; P68431 1-136; P62805 1-103) (complex)”, the results for the K1/2 (half-saturation concentration) after incubation with CBP30 in series [1] and in series [2] were 1.2 nM and 3.5 nM, respectively. For the same substance, the K1/2 (half-saturation concentration) amounted to 0.35 nM in series [3] and 1.8 nM in series [4].

“180-bp unmodified nucleosome (from UniProt P04908 1-130; P68431 1-136; P62805 1-103) (complex)” yielded a K1/2 (half-saturation concentration) in series [3] of 2.2 nM.

In the case of H4acNuc (180-bp, H4K12ac/K16ac), the K half in series [5] (H3.1, H4 with K12ac/K16ac) was 3.5 nM; in series [5] (setting [9]), 1.8 nM; in series [6] (H3.1, H4 with K12ac/K16ac), 1.2 nM; in series [6] (setting [9]), 0.35 nM.

“p300/CBP bromodomain bromodomain (from UniProt Q09472)”: the equilibrium dissociation constant (Kd) was 25 µM in series [7] and 90 µM in series [8].

For the substance unmodified 180-bp nucleosome, the K half in series [5] (no CBP30, H3.1, H4, unmodified) was determined as 7.3 nM; in series [6] (no CBP30, H3.1, H4, unmodified), 2.2 nM.

The term Kd denotes the free concentration of one partner at which half of the binding sites on the other are occupied at equilibrium, for simple one-to-one binding.
